Earlier results in article PMC5911825.

Target: Cys797 (UniProt position 797, LMPFGCLLDYV)
Assay: other (described only as 'titration experiments')
Details: wild-type EGFR; ligand state not stated

Epidermal growth factor receptor (EGFR), wild type (Homo sapiens)
pKa: 5.5
